B1: PTP1B^1−321 (wild-type protein tyrosine phosphatase 1B, residues 1-321) (domain or fragment)
chain: MEMEKEFEQIDKSGSWAAIYQDIRHEASDFPCRVAKLPKNKNRNRYRDVSPFDHSRIKLHQEDNDYINASLIKMEEAQRSYILTQGPLPNTCGHFWEMVWEQKSRGVVMLNRVMEKGSLKCAQYWPQKEEKEMIFEDTNLKLTLISEDIKSYYTVRQLELENLTTQETREILHFHYTTWPDFGVPESPASFLNFLFKVRESGSLSPEHGPVVVHCSAGIGRSGTFCLADTCLLLMDKRKDPSSVDIKKVLLEMRKFRMGLIQTADQLRFSYLAVIEGAKFIMGDSSVQDQWKELSHEDLEPPPEHIPPPPRPPKRILEPHN
B2: PTP1B^1−401 (domain or fragment)
chain: MEMEKEFEQIDKSGSWAAIYQDIRHEASDFPCRVAKLPKNKNRNRYRDVSPFDHSRIKLHQEDNDYINASLIKMEEAQRSYILTQGPLPNTCGHFWEMVWEQKSRGVVMLNRVMEKGSLKCAQYWPQKEEKEMIFEDTNLKLTLISEDIKSYYTVRQLELENLTTQETREILHFHYTTWPDFGVPESPASFLNFLFKVRESGSLSPEHGPVVVHCSAGIGRSGTFCLADTCLLLMDKRKDPSSVDIKKVLLEMRKFRMGLIQTADQLRFSYLAVIEGAKFIMGDSSVQDQWKELSHEDLEPPPEHIPPPPRPPKRILEPHNGKCREFFPNHQWVKEETQEDKDCPIKEEKGSPLNAAPYGIESMSQDTEVRSRVVGGSLRGAQAASPAKGEPSLPEKDEDH

Molecular target: fluorescently labeled isolated Grb2 C-SH3 domain
Test: fluorescence polarisation; fluorescence anisotropy; PTP1B titrated into a solution of N-terminally fluorophore-labelled Grb2 construct; N = 2–4 independent titrations

| Binder | Kd [µM] |
| --- | --- |
| B1 | 62 |
| B2 | 82.4 |
